The values below come from US9370316B2, “MRI estimation of contrast agent concentration using a neural network approach” (HENRY FORD HEALTH SYSTEM, priority 2007, dated 2016).

The data set is described as follows: MRI (TOMROP) after injection of Gd-BSA in 9 L rat model of cerebral gliosarcoma. It counts as in vivo, Fisher 344 rats. Particulars: rats with 9 L cerebral tumor. An excerpt:
Given a “gold-standard” map of CA concentration, an ANN is trainable to directly estimate CA concentration from MRI image sets in which the time-varying behavior of the images depends, albeit nonlinearly, on CA concentration. Some of our studies using TOMROP (“T One by Multiple Read Out Pulses”) image sets as inputs in a set of tubular gel phantoms are supportive. In accordance with some embodiments, without limitation, an ANN for estimating CA concentration in the brain tissue of 9 male Fisher rats, using as inputs TOMROP signal changes after injection of Gd-BSA in a 9 L rat model of cerebral gliosarcoma (Ewing et al. 2006), was designed, trained, optimized, and tested. The MRI experiment was followed by quantitative autoradiography (“QAR”) using radioiodinated serum albumin (“RISA”), thus essentially replicating the MRI as to its timing, procedures, and indicator. The autoradiogram of the QAR procedure served as the training set.
Animal Studies: As part of our studies to compare MRI estimates of transfer constant to QAR estimates (results not included here), nine animals (Fisher 344 rats) with 9 L tumor (Ewing et al. 2006) were studied. Mean tumor age was 14.6±0.7 days (range 14 to 16 days) for all animals. […]

Take “Gadolinium-labeled Bovine Serum Albumin [Gd-BSA]”: the “Extravasation of Gd-BSA” value is “occurred within the tumors and at tumor borders in all animals”.
